Legend:
[1] = target: feline FcRn (FCN-F82W3, Acrobiosystems) (feline); assay: SPR Carterra, IgG coupled, pH 6.0
[2] = target: feline FcRn (IgG receptor FcRn large subunit p51 with feline beta-2-microglobulin) (feline); assay: SPR Biacore 8K+, IgG on C1 chip, pH 5.9, 1:1 kinetic fit
[3] = target: feline FcRn (IgG receptor FcRn large subunit p51 with feline beta-2-microglobulin) (feline); assay: SPR Biacore 8K+, IgG on C1 chip, pH 5.9, kinetic fit (printed 1:4)

B1: anti-NGF feline IgG1a, Fc variant S428Y (antibody, part only; not given: anti-NGF variable domains, not shown: another chain or arm of the molecule; small tags and cut ends)
Fc: PPEMLGGPSIFIFPPKPKDTLSISRTPEVTCLVVDLGPDDSDVQITWFVDNTQVYTAKTSPREEQFNSTYRVVSVLPILHQDWLKGKEFKCKVNSKSLPSPIERTISKAKGQPHEPQVYVLPPAQEELSRNKVSVTCLIKSFHPPDIAVEWEITGQPEPENNYRTTPPQLDSDGTYFVYSKLSVDRSHWQRGNTYTCSVYHEALHSHHTQKSLTQSPGK
Binder B1 has a Kd [1] of 25.6 nM, a koff [1] of 0.0184 s⁻¹ and a kon [1] of 718000 M⁻¹ s⁻¹. The Kd [2] was 71.8 nM.

B2: anti-NGF feline IgG1a, Fc variant S428Y, L309V (antibody, part only; not given: Anti-NGF variable domains, not shown: another chain or arm of the molecule; small tags and cut ends)
Fc: PPEMLGGPSIFIFPPKPKDTLSISRTPEVTCLVVDLGPDDSDVQITWFVDNTQVYTAKTSPREEQFNSTYRVVSVLPIVHQDWLKGKEFKCKVNSKSLPSPIERTISKAKGQPHEPQVYVLPPAQEELSRNKVSVTCLIKSFHPPDIAVEWEITGQPEPENNYRTTPPQLDSDGTYFVYSKLSVDRSHWQRGNTYTCSVYHEALHSHHTQKSLTQSPGK
B2 was tested, and the Kd [1] was 13.2 nM, the koff [1] was 0.0112 s⁻¹ and the kon [1] was 847000 M⁻¹ s⁻¹. For the same binder, the Kd [2] was 35.3 nM.

B3: anti-NGF feline IgG1a, Fc variant S428Y, L309V, T286E (antibody, part only; not given: anti-NGF variable domains, not shown: another chain or arm of the molecule; small tags and cut ends)
Fc: PPEMLGGPSIFIFPPKPKDTLSISRTPEVTCLVVDLGPDDSDVQITWFVDNTQVYEAKTSPREEQFNSTYRVVSVLPIVHQDWLKGKEFKCKVNSKSLPSPIERTISKAKGQPHEPQVYVLPPAQEELSRNKVSVTCLIKSFHPPDIAVEWEITGQPEPENNYRTTPPQLDSDGTYFVYSKLSVDRSHWQRGNTYTCSVYHEALHSHHTQKSLTQSPGK
With B3 the Kd [3] was 5.26 nM.

B4: anti-NGF feline IgG1a, Fc variant S428Y, Q311V (antibody, part only; not given: Anti-NGF variable domains, not shown: another chain or arm of the molecule; small tags and cut ends)
Fc: PPEMLGGPSIFIFPPKPKDTLSISRTPEVTCLVVDLGPDDSDVQITWFVDNTQVYTAKTSPREEQFNSTYRVVSVLPILHVDWLKGKEFKCKVNSKSLPSPIERTISKAKGQPHEPQVYVLPPAQEELSRNKVSVTCLIKSFHPPDIAVEWEITGQPEPENNYRTTPPQLDSDGTYFVYSKLSVDRSHWQRGNTYTCSVYHEALHSHHTQKSLTQSPGK
B4 was tested, and the Kd [1] was 10.9 nM, the koff [1] was 0.00977 s⁻¹ and the kon [1] was 893000 M⁻¹ s⁻¹. It also gave a Kd [2] of 32.2 nM.

B5: anti-NGF feline IgG1a, Fc variant S428Y, L309V, E380T (antibody, part only; not given: anti-NGF variable domains, light chain, not shown: another chain or arm of the molecule; small tags and cut ends)
Fc: PPEMLGGPSIFIFPPKPKDTLSISRTPEVTCLVVDLGPDDSDVQITWFVDNTQVYTAKTSPREEQFNSTYRVVSVLPIVHQDWLKGKEFKCKVNSKSLPSPIERTISKAKGQPHEPQVYVLPPAQEELSRNKVSVTCLIKSFHPPDIAVTWEITGQPEPENNYRTTPPQLDSDGTYFVYSKLSVDRSHWQRGNTYTCSVYHEALHSHHTQKSLTQSPGK
In the case of B5, the Kd [2] is reported as 20.6 nM.

Reference: patent US20250304650A1
